{"source": "the supplement of paper PMC10567573", "parents": {"B1": {"name": "MLH1 (parent)", "chain": "YNIATRRKALKNPSEEYGKILEVV"}}, "data": [{"variants_of": "B1", "experiment": "protein stability index of a GFP-peptide fusion (GPS, HEK-293T) (PSI 1-6); higher = more stable", "conditions": "c terminus: a fixed tail appended", "values": [{"variant": "YNIATRRKALKNPSEEYGMILEVV", "protein stability index": 2.51}, {"variant": "YNIATRRKALKNPSEEYGVILEVV", "protein stability index": 1.74}, {"variant": "YNIATRRKALKNPSEEYGCILEVV", "protein stability index": 1.8}, {"variant": "YNIATRRKALKNPSEEYGLILEVV", "protein stability index": 1.63}, {"variant": "YNIATRRKALKNPSEEYGKIDEVV", "protein stability index": 4.42}, {"variant": "YNIATRRKALKNPSEEYGKIAEVV", "protein stability index": 3.69}, {"variant": "YNIATRRKALKNPSEEYGKIEEVV", "protein stability index": 4.02}, {"variant": "YNIATRRKALKNPSEEYGKINEVV", "protein stability index": 4.33}, {"variant": "YNIATRRKALKNPSEEYGKIWEVV", "protein stability index": 2.34}, {"variant": "YNGATRRKALKNPSEEYGKILEVV", "protein stability index": 2.97}, {"variant": "YNSATRRKALKNPSEEYGKILEVV", "protein stability index": 3}, {"variant": "YNQATRRKALKNPSEEYGKILEVV", "protein stability index": 3.41}, {"variant": "YNNATRRKALKNPSEEYGKILEVV", "protein stability index": 3.29}, {"variant": "YNRATRRKALKNPSEEYGKILEVV", "protein stability index": 2.71}, {"variant": "YNMATRRKALKNPSEEYGKILEVV", "protein stability index": 3.08}, {"variant": "YNHATRRKALKNPSEEYGKILEVV", "protein stability index": 2.69}, {"variant": "YNIATRRKALNNPSEEYGKILEVV", "protein stability index": 2.69}, {"variant": "YNIATRRKALFNPSEEYGKILEVV", "protein stability index": 1.95}, {"variant": "YNIATRRKALLNPSEEYGKILEVV", "protein stability index": 2.43}, {"variant": "YNIATRRKALKNPSGEYGKILEVV", "protein stability index": 1.76}, {"variant": "YNIATRRKALKNPSMEYGKILEVV", "protein stability index": 2.54}, {"variant": "YNIATRRKALKNPSLEYGKILEVV", "protein stability index": 1.99}, {"variant": "YNIALRRKALKNPSEEYGKILEVV", "protein stability index": 2.85}, {"variant": "YNIASRRKALKNPSEEYGKILEVV", "protein stability index": 3.03}, {"variant": "YNIANRRKALKNPSEEYGKILEVV", "protein stability index": 2.57}, {"variant": "MNIATRRKALKNPSEEYGKILEVV", "protein stability index": 2.76}, {"variant": "SNIATRRKALKNPSEEYGKILEVV", "protein stability index": 3.29}, {"variant": "KNIATRRKALKNPSEEYGKILEVV", "protein stability index": 3.52}, {"variant": "YNIATRRKALKGPSEEYGKILEVV", "protein stability index": 2.71}, {"variant": "YNIATRRKALKFPSEEYGKILEVV", "protein stability index": 1.97}, {"variant": "YNIATRRKALKWPSEEYGKILEVV", "protein stability index": 1.94}, {"variant": "YNIATRRKALKYPSEEYGKILEVV", "protein stability index": 2.53}, {"variant": "YNIATRKKALKNPSEEYGKILEVV", "protein stability index": 2.48}, {"variant": "YNIATRPKALKNPSEEYGKILEVV", "protein stability index": 3.14}, {"variant": "YNIATRVKALKNPSEEYGKILEVV", "protein stability index": 2.39}, {"variant": "YNIATRAKALKNPSEEYGKILEVV", "protein stability index": 2.5}, {"variant": "YMIATRRKALKNPSEEYGKILEVV", "protein stability index": 1.85}, {"variant": "YTIATRRKALKNPSEEYGKILEVV", "protein stability index": 2.45}, {"variant": "YNIATRREALKNPSEEYGKILEVV", "protein stability index": 3.25}, {"variant": "YNIATRRWALKNPSEEYGKILEVV", "protein stability index": 1.94}, {"variant": "YNIATRRIALKNPSEEYGKILEVV", "protein stability index": 2}, {"variant": "YNIATRRKALKNPSEEYGKILEVE", "protein stability index": 3.98}, {"variant": "YNIATRRKALKNPSEEYGKILEVA", "protein stability index": 3.79}, {"variant": "YNIATRRKALKNPSEEYGKILESV", "protein stability index": 3.66}, {"variant": "YNIATRRKALKNPSEEYGKILEIV", "protein stability index": 2.5}, {"variant": "YNIATRRKALKNPSEEYGKILECV", "protein stability index": 3.03}, {"variant": "YNIATRRKALKNPSEEYGKILEAV", "protein stability index": 3.69}, {"variant": "YNIATRRKALKNPSEEYGKILEKV", "protein stability index": 3.36}, {"variant": "YNIATRRKALKNPSEEYGKILENV", "protein stability index": 3.43}, {"variant": "YNIATRRKALKNWSEEYGKILEVV", "protein stability index": 2.66}, {"variant": "YNIATRRKALKNISEEYGKILEVV", "protein stability index": 2.15}, {"variant": "YNIATRRKALKNNSEEYGKILEVV", "protein stability index": 2.99}, {"variant": "YNIATRRKALKNYSEEYGKILEVV", "protein stability index": 2.59}, {"variant": "YNIATRRKALKNPSEEYGKILQVV", "protein stability index": 2.42}, {"variant": "YNIATRRKALKNPSEEYGKILHVV", "protein stability index": 2.43}, {"variant": "YNIATRRKALKNPSEEYGKILFVV", "protein stability index": 2.32}, {"variant": "YNIATRRKALKNPSEEYGKILKVV", "protein stability index": 2.18}, {"variant": "YNIATRRKALKNPSEEYGKCLEVV", "protein stability index": 3.89}, {"variant": "YNIATRRKALKNPSEEYGKVLEVV", "protein stability index": 4.05}, {"variant": "YNIATRRKALKNPSEEYGKDLEVV", "protein stability index": 4.34}, {"variant": "YNIATRRKALKNPSEEYGKWLEVV", "protein stability index": 2.82}, {"variant": "YNIATRRKALKNPSEEYGKRLEVV", "protein stability index": 3.6}, {"variant": "YNIATRRKAFKNPSEEYGKILEVV", "protein stability index": 3.02}, {"variant": "YNIATRRKAGKNPSEEYGKILEVV", "protein stability index": 2.99}, {"variant": "YNIATRRKAKKNPSEEYGKILEVV", "protein stability index": 3.31}, {"variant": "YNIATRRKAAKNPSEEYGKILEVV", "protein stability index": 3.09}, {"variant": "YNIATRRKALKNPSEEYAKILEVV", "protein stability index": 2.21}, {"variant": "YNIATRRKALKNPSEEYIKILEVV", "protein stability index": 2.16}, {"variant": "YNIATRRKALKNPSEEYPKILEVV", "protein stability index": 3.03}, {"variant": "YNIATRRKALKNPSEEYFKILEVV", "protein stability index": 2.16}, {"variant": "YNIATRRKALKNPSEEYLKILEVV", "protein stability index": 2.15}, {"variant": "YNIATRRKALKNPSEEYVKILEVV", "protein stability index": 1.95}, {"variant": "YNIATRRKALKNPWEEYGKILEVV", "protein stability index": 1.43}, {"variant": "YNIATRRKALKNPEEEYGKILEVV", "protein stability index": 3.56}, {"variant": "YNIATRRKALKNPDEEYGKILEVV", "protein stability index": 2.98}, {"variant": "YNIITRRKALKNPSEEYGKILEVV", "protein stability index": 2.54}, {"variant": "YNIQTRRKALKNPSEEYGKILEVV", "protein stability index": 2.57}, {"variant": "YNIWTRRKALKNPSEEYGKILEVV", "protein stability index": 1.83}, {"variant": "YNIATPRKALKNPSEEYGKILEVV", "protein stability index": 3.15}, {"variant": "YNIATQRKALKNPSEEYGKILEVV", "protein stability index": 2.82}, {"variant": "YNIATKRKALKNPSEEYGKILEVV", "protein stability index": 2.99}, {"variant": "YNIATRRKALKNPSEDYGKILEVV", "protein stability index": 2.75}, {"variant": "YNIATRRKALKNPSERYGKILEVV", "protein stability index": 2.5}, {"variant": "YNIATRRKALKNPSEYYGKILEVV", "protein stability index": 1.88}, {"variant": "YNIATRRKALKNPSEGYGKILEVV", "protein stability index": 2.89}, {"variant": "YNIATRRKALKNPSEEDGKILEVV", "protein stability index": 4.3}, {"variant": "YNIATRRKALKNPSEERGKILEVV", "protein stability index": 3.57}, {"variant": "YNIATRRKALKNPSEEPGKILEVV", "protein stability index": 4.17}, {"variant": "YNIATRRKALKNPSEESGKILEVV", "protein stability index": 3.75}, {"variant": "YNIATRRKALKNPSEENGKILEVV", "protein stability index": 4.08}, {"variant": "YNIATRRKALKNPSEEVGKILEVV", "protein stability index": 3.16}, {"variant": "YNIATRRKKLKNPSEEYGKILEVV", "protein stability index": 2.71}, {"variant": "YNIATRRKELKNPSEEYGKILEVV", "protein stability index": 2.99}, {"variant": "YNIATRRKQLKNPSEEYGKILEVV", "protein stability index": 2.55}]}]}
